The target in assay [1] is recombinant SARS-CoV-2 spike protein (SARS-CoV-2) (UniProt P0DTC2). Put plainly: QCM-D; spike protein (400 ug/mL) immobilised by EDC/NHS on an 11-MUA carboxylated gold sensor, ethanolamine-blocked; 0.5-10 uM rGRFT flowed in turn at 20 uL/min, 1x PBS.
Assay [2] has the same target. Put plainly: ITC; MicroCal ITC200; 50 uM rGRFT injected (2 uL, 120 s intervals) into the cell with 280 uL of 1 uM spike protein; 1x PBS, pH 7.4.

For orientation: pKd means the Kd on a negative log10 scale, so that one unit is a factor of ten.

pKd: −log10 of the molar value.

Turning to “recombinant griffithsin lectin protein (rGRFT) (from UniProt P84801 1-121) (natural protein)”, the pKd in assay [1] is 5.80. Moreover, in assay [2], the negative-log Kd (pKd) was 5.00 and the stoichiometry N (rGRFT per spike) is 6.

The record behind these values is article PMC9017247.
